Test [1] concerns the target T1, mouse MAdCAM expressed on cells (mouse, UniProt Q61826 22-405).
T1 construct: whole, on cells
T1 sequence (looked up): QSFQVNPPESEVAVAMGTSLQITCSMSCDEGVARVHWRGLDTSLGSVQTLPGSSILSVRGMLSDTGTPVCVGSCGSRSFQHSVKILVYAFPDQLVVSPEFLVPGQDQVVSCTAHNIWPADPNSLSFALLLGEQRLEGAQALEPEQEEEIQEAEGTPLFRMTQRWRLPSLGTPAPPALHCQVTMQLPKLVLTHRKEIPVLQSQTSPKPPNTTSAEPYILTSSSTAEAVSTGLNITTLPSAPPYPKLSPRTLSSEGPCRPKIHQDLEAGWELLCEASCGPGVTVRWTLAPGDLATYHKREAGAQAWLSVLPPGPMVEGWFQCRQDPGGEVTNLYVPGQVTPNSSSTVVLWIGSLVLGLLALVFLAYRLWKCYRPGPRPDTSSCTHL
Kind of test: cell binding.

Test [2] deals with T2, human MAdCAM expressed on cells (human, UniProt Q13477 19-382).
T2 construct: whole, on cells; also called MADCAM1
T2 sequence (looked up): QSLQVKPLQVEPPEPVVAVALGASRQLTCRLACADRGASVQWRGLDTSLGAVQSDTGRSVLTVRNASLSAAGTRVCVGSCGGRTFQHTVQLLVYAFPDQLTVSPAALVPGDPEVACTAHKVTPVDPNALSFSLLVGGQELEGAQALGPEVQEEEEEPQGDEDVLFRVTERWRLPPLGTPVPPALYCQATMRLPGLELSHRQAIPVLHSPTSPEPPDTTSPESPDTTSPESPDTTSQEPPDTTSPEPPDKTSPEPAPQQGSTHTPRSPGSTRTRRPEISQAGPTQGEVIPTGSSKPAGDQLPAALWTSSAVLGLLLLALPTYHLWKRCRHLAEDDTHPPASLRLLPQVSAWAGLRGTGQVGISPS
The test can be described thus: cell binding.

13 molecules from patent US20200392228A1 (PANDION OPERATIONS, published 2020) can be followed below.

B1: MAdCAM antibody Clone ID 38 of Table 6 (scFv) (scFv)
scFv: EVQLLESGGGLVQPGGSLRLSCAASGFTFGSYSMSWVRQAPGKGLEWVSAIGTGGGTYYADSVKGRFTISRDNSKNTLYLQMNSLRAEDTAVYYCAKGTPYYYYYGMDVWGQGTMVTVSSGGGGSGGGGSGGGGSGGGGSDIQMTQSPSSLSASVGDRVTITCRASQPLSNWLAWYQQKPGKAPKLLIYAASSLQSGVPSRFSGSGSGTDFTLTISSLQPEDFATYYCQQAISFPLTFGGGTKVEIK
Regarding B1, the binding result is listed as “no binding” in test [1] and “binds” in test [2].

B2: MAdCAM antibody Clone ID 35 of Table 6 (scFv) (scFv)
scFv: EVQLLESGGGLVQPGGSLRLSCAASGFSFSSYTMNWVRQAPGKGLEWVSFITSSSRTIYYADSVKGRFTISRDNSKNTLYLQMNSLRAEDTAVYYCARDRRGDYGDSWYFDLWGRGTLVTVSSGGGGSGGGGSGGGGSGGGGSEIVMTQSPATLSVSPGERATLSCRASQSVRNYLAWYQQKPGQAPRLLIYGASTRATGIPARFSGSGSGTEFTLTISSLQSEDFAVYYCQQYGSSPLTFGGGTKVEIK
B2: the binding result is given as “no binding” in test [1] and “binds” in test [2].

B3: MAdCAM antibody Clone ID 21 of Table 6 (scFv) (scFv)
scFv: EVQLLESGGGLVQPGGSLRLSCAASGFTFSNAWMSWVRQAPGKGLEWVSTIVGNGGATYYADSVKGRFTISRDNSKNTLYLQMNSLRAEDTAVYYCARDNPLRWQGMDVWGQGTLVTVSSGGGGSGGGGSGGGGSGGGGSDIQMTQSPSSLSASVGDRVTITCRASQDISNYLNWYQQKPGKAPKLLIYAASSLQSGVPSRFSGSGSGTDFTLTISSLQPEDFATYYCQQSYSIPPTFGPGTKVDIK
For B3, the binding result in test [1] was “no binding”; in test [2] it was “binds”.

B4: MAdCAM antibody Clone ID 16 of Table 6 (scFv) (scFv)
scFv: EVQLLESGGGLVQPGGSLRLSCAASGFTFEDYAMHWVRQAPGKGLEWVSYLNSDGGSTSYADSVKGRFTISRDNSKNTLYLQMNSLRAEDTAVYYCAKDYCTNGVCAFDYWGQGTLVTVSSGGGGSGGGGSGGGGSGGGGSDIQMTQSPSSLSASVGDRVTITCRASQSISTYLNWYQQKPGKAPKLLIYDASNLETGVPSRFSGSGSGTDFTLTISSLQPEDFATYYCQQSYTIPITFGQGTRLEIK
With B4, the binding result is “no binding” in test [1] and “binds” in test [2].

B5: MAdCAM antibody Clone ID 27 of Table 6 (scFv) (scFv)
scFv: QVQLVQSGAEVKKPGASVKVSCKASGYTFTGYYIHWVRQAPGQGLEWMGWMNPNSGNTGYAQKFQGRVTMTRDTSTSTVYMELSSLRSEDTAVYYCARDPGFLGYCSGGSCYDGWFDPWGQGTLVTVSSGGGGSGGGGSGGGGSGGGGSDIQMTQSPSSLSASVGDRVTITCRASQSISSYLHWYQQKPGKAPKLLIYAASSLQSGVPSRFSGSGSGTDFTLTISSLQPEDFATYYCQQSYTAPYTFGQGTKLEIK
For B5, the binding result was “no binding” in test [1] and “binds” in test [2].

B6: MAdCAM antibody Clone ID 33 of Table 6 (scFv) (scFv)
scFv: QVQLVQSGAEVKKPGASVKVSCKASGYTFTSYGISWVRQAPGQGLEWMGWMHPKSGDTGLTQKFQGRVTMTRDTSTSTVYMELSSLRSEDTAVYYCARDTPYYYYGMDVWGQGTTVTVSSGGGGSGGGGSGGGGSGGGGSDIQMTQSPSSLSASVGDRVTITCRASQSISSWLAWYQQKPGKAPKLLIYAASSLQSGVPSRFSGSGSGTDFTLTISSLQPEDFATYYCQQSYSVPITFGQGTKVEIK
Regarding B6, the binding result is on record as “no binding” in test [1] and “binds” in test [2].

B7: MAdCAM antibody Clone ID 28 of Table 6 (scFv) (scFv)
scFv: QVQLVQSGAEVKKPGASVKVSCKASGYTFTDYFLHWVRQAPGQGLEWMGWMNPTSGNTGYAQKFQGRVTMTRDTSTSTVYMELSSLRSEDTAVYYCAREGEGSGFDYWGQGTLVTVSSGGGGSGGGGSGGGGSGGGGSDIQMTQSPSSLSASVGDRVTITCRASQGINSWLAWYQQKPGKAPKLLIYDASNLETGVPSRFSGSGSGTDFTLTISSLQPEDFATYYCQQSYSTPLTFGGGTKVEIK
Turning to B7, the values for the binding result in test [1] and in test [2] were “no binding” and “binds”, respectively.

B8: MAdCAM antibody Clone ID 37 of Table 6 (scFv) (scFv)
scFv: QVQLVQSGAEVKKPGASVKVSCKASGYTFSKHFVHWVRQAPGQGLEWMGWMNPNSGNSGYAQKFQGRVTMTRDTSTSTVYMELSSLRSEDTAVYYCARGEGGYYYYGMDVWGQGTLVTVSSGGGGSGGGGSGGGGSGGGGSDIQMTQSPSSLSASVGDRVTITCRASQSISSWLAWYQQKPGKAPKLLIYAASTLQSGVPSRFSGSGSGTDFTLTISSLQPEDFATYYCQQSYSTPWTFGQGTKVEIK
Turning to B8, the values for the binding result in test [1] and in test [2] were “no binding” and “binds”, respectively.

B9: MAdCAM antibody Clone ID 32 of Table 6 (scFv) (scFv)
scFv: QVQLVQSGAEVKKPGASVKVSCKASGYTLTDYYMHWVRQAPGQGLEWMGIINPSGGSTSYAQKFQGRVTMTRDTSTSTVYMELSSLRSEDTAVYYCAREEYSSSSGYFDYWGQGTLVTVSSGGGGSGGGGSGGGGSGGGGSDIQMTQSPSSLSASVGDRVTITCRASQGISSWLAWYQQKPGKAPKLLIYAASSLQSGVPSRFSGSGSGTDFTLTISSLQPEDFATYYCQQSYSTPLTFGQGTKVEIK
Take B9: the binding result is listed as “no binding” in test [1] and “binds” in test [2].

B10: MAdCAM antibody Clone ID 31 of Table 6 (scFv) (scFv)
scFv: QVQLVQSGAEVKKPGASVKVSCKASGYTFTSYYMHWVRQAPGQGLEWMGIINPSGGSTSYAQKFQGRVTMTRDTSTSTVYMELSSLRSEDTAVYYCARDTGYSYGRYYYYGMDVWGQGTLVTVSSGGGGSGGGGSGGGGSGGGGSDIQMTQSPSSLSASVGDRVTITCRASQSIGRWLAWYQQKPGKAPKLLIYDASNLQSGVPSRFSGSGSGTDFTLTISSLQPEDFATYYCQQSYSIPITFGQGTKVEIK
As for B10, the results for the binding result in test [1] and in test [2] were “no binding” and “binds”, respectively.

B11: MAdCAM antibody Clone ID 36 of Table 6 (scFv) (scFv)
scFv: QVQLVQSGAEVKKPGASVKVSCKASGYTFTGHYMHWVRQAPGQGLEWMGIINPSGGSTSYAQKFQGRVTMTRDTSTSTVYMELSSLRSEDTAVYYCARDTGYSYGRYYYYGMDVWGQGTTVTVSSGGGGSGGGGSGGGGSGGGGSDIQMTQSPSSLSASVGDRVTITCRASQSIGRWLAWYQQKPGKAPKLLIYDASNLQSGVPSRFSGSGSGTDFTLTISSLQPEDFATYYCQQSYSIPITFGGGTKVEIK
On to B11, for which the binding result in test [1] was “no binding”; in test [2] it was “binds”.

B12: MAdCAM antibody Clone ID 17 of Table 6 (scFv) (scFv)
scFv: EVQLLESGGGLVQPGGSLRLSCAASGFTFSDSAMHWVRQAPGKGLEWVSAISGSGSTIYYADSVKGRFTISRDNSKNTLYLQMNSLRAEDTAVYYCVSDIAVAGHWYFDLWGRGTLVTVSSGGGGSGGGGSGGGGSGGGGSDIQMTQSPSSLSASVGDRVTITCRASQSISTFLNWYQQKPGKAPKLLIYAASRLEGGVPSRFSGSGSGTDFTLTISSLQPEDFATYYCQQANSFPLTFGPGTKVDIK
With B12, the binding result in test [1] is reported as “no binding”; in test [2] it was “binds”.

B13: MAdCAM antibody Clone ID 29 of Table 6 (scFv) (scFv)
scFv: QVQLVQSGAEVKKPGASVKVSCKASGYTFTSYYMHWVRQAPGQGLEWMAWMNPNSGNTGYAQKFQGRVTMTRDTSTSTVYMELSSLRSEDTAVYYCARDYDFWSGSLGYWGQGTLVTVSSGGGGSGGGGSGGGGSGGGGSDIQMTQSPSSLSASVGDRVTITCRASQGISNYLAWYQQKPGKAPKLLIYAASSLQSGVPSRFSGSGSGTDFTLTISSLQPEDFATYYCQQSYSTPWTFGQGTKVEIK
Take B13: the binding result is recorded as “no binding” in test [1] and “binds” in test [2].
